Consider ten proteins from US20090099029.

To fix the notation:
T1: Bovine, dephosphorylated, Myelin Basic Protein (MBP), P02687
T1 chain: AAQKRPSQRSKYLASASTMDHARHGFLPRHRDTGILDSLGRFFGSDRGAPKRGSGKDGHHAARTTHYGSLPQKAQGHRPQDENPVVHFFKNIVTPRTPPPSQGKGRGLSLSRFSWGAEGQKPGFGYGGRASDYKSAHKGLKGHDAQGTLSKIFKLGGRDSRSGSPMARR

B1: BTK (protein)
chain: MAAVILESIFLKRSQQKKKTSPLNFKKRLFLLTVHKLSYYEYDFERGRRGSKKGSIDVEKITCVETVVPEKNPPPERQIPRRGEESSEMEQISIIERFPYPFQVVYDEGPLYVFSPTEELRKRWIHQLKNVIRYNSDLVQKYHPCFWIDGQYLCCSQTAKNAMGCQILENRNGSLKPGSSHRKTKKPLPPTPEEDQILKKPLPPEPAAAPVSTSELKKVVALYDYMPMNANDLQLRKGDEYFILEESNLPWWRARDKNGQEGYIPSNYVTEAEDSIEMYEWYSKHMTRSQAEQLLKQEGKEGGFIVRDSSKAGKYTVSVFAKSTGDPQGVIRHYVVCSTPQSQYYLAEKHLFSTIPELINYHQHNSAGLISRLKYPVSQQNKNAPSTAGLGYGSWEIDPKDLTFLKELGTGQFGVVKYGKWRGQYDVAIKMIKEGSMSEDEFIEEAKVMMNLSHEKLVQLYGVCTKQRPIFIITEYMANGCLLNYLREMRHRFQTQQLLEMCKDVCEAMEYLESKQFLHRDLAARNCLVNDQGVVKVSDFGLSRYVLDDEYTSSVGSKFPVRWSPPEVLMYSKFSSKSDIWAFGVLMWEIYSLGKMPYERFTNSETAEHIAQGLRLYRPHLASEKVYTIMYSCWHEKADERPTFKILLSNILDVMDEES
B2: BMX (protein)
chain: MDTKSILEELLLKRSQQKKKMSPNNYKERLFVLTKTNLSYYEYDKMKRGSRKGSIEIKKIRCVEKVNLEEQTPVERQYPFQIVYKDGLLYVYASNEESRSQWLKALQKEIRGNPHLLVKYHSGFFVDGKFLCCQQSCKAAPGCTLWEAYANLHTAVNEEKHRVPTFPDRVLKIPRAVPVLKMDAPSSSTTLAQYDNESKKNYGSQPPSSSTSLAQYDSNSKKIYGSQPNFNMQYIPREDFPDWWQVRKLKSSSSSEDVASSNQKERNVNHTTSKISWEFPESSSSEEEENLDDYDWFAGNISRSQSEQLLRQKGKEGAFMVRNSSQVGMYTVSLFSKAVNDKKGTVKHYHVHTNAENKLYLAENYCFDSIPKLIHYHQHNSAGMITRLRHPVSTKANKVPDSVSLGNGIWELKREEITLLKELGSGQFGVVQLGKWKGQYDVAVKMIKEGSMSEDEFFQEAQTMMKLSHPKLVKFYGVCSKEYPIYIVTEYISNGCLLNYLRSHGKGLEPSQLLEMCYDVCEGMAFLESHQFIHRDLAARNCLVDRDLCVKVSDFGMTRYVLDDQYVSSVGTKFPVKWSAPEVFHYFKYSSKSDVWAFGILMWEVFSLGKQPYDLYDNSQVVLKVSQGHRLYRPHLASDTIYQIMYSCWHELPEKRPTFQQLLSSIEPLREKDKH
B3: TYRO3 (protein)
chain: LRKRRKETRFGQAFDSVMARGEPAVHFRAARSFNRERPERIEATLDSLGISDELKEKLEDVLIPEQQFTLGRMLGKGEFGSVREAQLKQEDGSFVKVAVKMLKADIIASSDIEEFLREAACMKEFDHPHVAKLVGVSLRSRAKGRLPIPMVILPFMKHGDLHAFLLASRIGENPFNLPLQTLIRFMVDIACGMEYLSSRNFIHRDLAARNCMLAEDMTVCVADFGLSRKIYSGDYYRQGCASKLPVKWLALESLADNLYTVQSDVWAFGVTMWEIMTRGQTPYAGIENAEIYNYLIGGNRLKQPPECMEDVYDLMYQCWSADPKQRPSFTCLRMELENILGQLSVLSASQDPLYINIERAEEPTAGGSLELPGRDQPYSGAGDGSGMGAVGGTPSDCRYILTPGGLAEQPGQAEHQPESPLNETQRLLLLQQGLLPHSSC
B4: CSF1R (protein)
chain: YKYKQKPKYQVRWKIIESYEGNSYTFIDPTQLPYNEKWEFPRNNLQFGKTLGAGAFGKVVEATAFGLGKEDAVLKVAVKMLKSTAHADEKEALMSELKIMSHLGQHENIVNLLGACTHGGPVLVITEYCCYGDLLNFLRRKAEAMLGPSLSPGQDPEGGVDYKNIHLEKKYVRRDSGFSSQGVDTYVEMRPVSTSSNDSFSEQDLDKEDGRPLELRDLLHFSSQVAQGMAFLASKNCIHRDVAARNVLLTNGHVAKIGDFGLARDIMNDSNYIVKGNARLPVKWMAPESIFDCVYTVQSDVWSYGILLWEIFSLGLNPYPGILVNSKFYKLVKDGYQMAQPAFAPKNIYSIMQACWALEPTHRPTFQQICSFLQEQAQEDRRERDYTNLPSSSRSGGSGSSSSELEEESSSEHLTCCEQGDIAQPLLQPNNYQFC
B5: RET (protein)
chain: HCYHKFAHKPPISSAEMTFRRPAQAFPVSYSSSGARRPSLDSMENQVSVDAFKILEDPKWEFPRKNLVLGKTLGEGEFGKVVKATAFHLKGRAGYTTVAVKMLKENASPSELRDLLSEFNVLKQVNHPHVIKLYGACSQDGPLLLIVEYAKYGSLRGFLRESRKVGPGYLGSGGSRNSSSLDHPDERALTMGDLISFAWQISQGMQYLAEMKLVHRDLAARNILVAEGRKMKISDFGLSRDVYEEDSYVKRSQGRIPVKWMAIESLFDHIYTTQSDVWSFGVLLWEIVTLGGNPYPGIPPERLFNLLKTGHRMERPDNCSEEMYRLMLQCWKQEPDKRPVFADISKDLEKMMVKRRDYLDLAASTPSDSLIYDDGLSEEETPLVDCNNAPLPRALPSTWIENKLYGMSDPNWPGESPVPLTRADGTNTGFPRYPNDSVYANWMLSPSAAKLMDTFDS
B6: ROS1 (protein)
chain: HRRLKNQKSAKEGVTVLINEDKELAELRGLAAGVGLANACYAIHTLPTQEEIENLPAFPREKLTLRLLLGSGAFGEVYEGTAVDILGVGSGEIKVAVKTLKKGSTDQEKIEFLKEAHLMSKFNHPNILKQLGVCLLNEPQYIILELMEGGDLLTYLRKARMATFYGPLLTLVDLVDLCVDISKGCVYLERMHFIHRDLAARNCLVSVKDYTSPRIVKIGDFGLARDIYKNDYYRKRGEGLLPVRWMAPESLMDGIFTTQSDVWSFGILIWEILTLGHQPYPAHSNLDVLNYVQTGGRLEPPRNCPDDLWNLMTQCWAQEPDQRPTFHRIQDQLQLFRNFFLNSIYKSRDEANNSGVINESFEGEDGDVICLNSDDIMPVALMETKNREGLNYMVLATECGQGEEKSEGPLGSQESESCGLRKEEKEPHADKDFCQEKQVAYCPSGKPEGLNYACLTHSGYGDGSD
B7: CSK (protein)
chain: MSAIQAAWPSGTECIAKYNFHGTAEQDLPFCKGDVLTIVAVTKDPNWYKAKNKVGREGIIPANYVQKREGVKAGTKLSLMPWFHGKITREQAERLLYPPETGLFLVRESTNYPGDYTLCVSCDGKVEHYRIMYHASKLSIDEEVYFENLMQLVEHYTSDADGLCTRLIKPKVMEGTVAAQDEFYRSGWALNMKELKLLQTIGKGEFGDVMLGDYRGNKVAVKCIKNDATAQAFLAEASVMTQLRHSNLVQLLGVIVEEKGGLYIVTEYMAKGSLVDYLRSRGRSVLGGDCLLKFSLDVCEAMEYLEGNNFVHRDLAARNVLVSEDNVAKVSDFGLTKEASSTQDTGKLPVKWTAPEALREKKFSTKSDVWSFGILLWEIYSFGRVPYPRIPLKDVVPRVEKGYKMDAPDGCPPAVYEVMKNCWHLDAAMRPSFLQLREQLEHIKTHELHL
B8: PDGFRB (protein)
chain: MLWQKKPRYEIRWKVIESVSSDGHEYIYVDPMQLPYDSTWELPRDQLVLGRTLGSGAFGQVVEATAHGLSHSQATMKVAVKMLKSTARSSEKQALMSELKIMSHLGPHLNVVNLLGACTKGGPIYIITEYCRYGDLVDYLHRNKHTFLQHHSDKRRPPSAELYSNALPVGLPLPSHVSLTGESDGGYMDMSKDESVDYVPMLDMKGDVKYADIESSNYMAPYDNYVPSAPERTCRATLINESPVLSYMDLVGFSYQVANGMEFLASKNCVHRDLAARNVLICEGKLVKICDFGLARDIMRDSNYISKGSTFLPLKWMAPESIFNSLYTTLSDVWSFGILLWEIFTLGGTPYPELPMNEQFYNAIKRGYRMAQPAHASDEIYEIMQKCWEEKFEIRPPFSQLVLLLERLLGEGYKKKYQQVDEEFLRSDHPAILRSQARLPGFHGLRSPLDTSSVLYTAVQPNEGDNDYIIPLPDPKPEVADEGPLEGSPSLASSTLNEVNTSSTISCDSPLEPQDEPEPEPQLELQVEPEPELEQLPDSGCPAPRAEAEDSFL
B9: FER (protein)
chain: KSGVVLLNPIPKDKKWILSHEDVILGELLGKGNFGEVYKGTLKDKTSVAVKTCKEDLPQELKIKFLQEAKILKQYDHPNIVKLIGVCTQRQPVYIIMELVSGGDFLTFLRRKKDELKLKQLVKFSLDAAAGMLYLESKNCIHRDLAARNCLVGENNVLKISDFGMSRQEDGGVYSSSGLKQIPIKWTAPEALNYGRYSSESDVWSFGILLWETFSLGVCPYPGMTNQQAREQVERGYRMSAPQHCPEDISKIMMKCWDYKPENRPKFSELQKELTIIKRKLT
B10: ABL2(ARG) (protein)
chain: MGQQVGRVGEAPGLQQPQPRGIRGSSAARPSGRRRDPAGRTTETGFNIFTQHDHFASCVEDGFEGDKTGGSSPEALHRPYGCDVEPQALNEAIRWSSKENLLGATESDPNLFVALYDFVASGDNTLSITKGEKLRVLGYNQNGEWSEVRSKNGQGWVPSNYITPVNSLEKHSWYHGPVSRSAAEYLLSSLINGSFLVRESESSPGQLSISLRYEGRVYHYRINTTADGKVYVTAESRFSTLAELVHHHSTVADGLVTTLHYPAPKCNKPTVYGVSPIHDKWEMERTDITMKHKLGGGQYGEVYVGVWKKYSLTVAVKTLKEDTMEVEEFLKEAAVMKEIKHPNLVQLLGVCTLEPPFYIVTEYMPYGNLLDYLRECNREEVTAVVLLYMATQISSAMEYLEKKNFIHRDLAARNCLVGENHVVKVADFGLSRLMTGDTYTAHAGAKFPIKWTAPESLAYNTFSIKSDVWAFGVLLWEIATYGMSPYPGIDLSQVYDLLEKGYRMEQPEGCPPKVYELMRACWKWSPADRPSFAETHQAFETMFHDSSISEEVAEELGRAASSSSVVPYLPRLPILPSKTRTLKKQVENKENIEGAQDATENSASSLAPGFIRGAQASSGSPALPRKQRDKSPSSLLEDAKETCFTRDRKGGFFSSFMKKRNAPTPPKRSSSFREMENQPHKKYELTGNFSSVASLQHADGFSFTPAQQEANLVPPKCYGGSFAQRNLCNDDGGGGGGSGTAGGGWSGITGFFTPRLIKKTLGLRAGKPTASDDTSKPFPRSNSTSSMSSGLPEQDRMAMTLPRNCQRSKLQLERTVSTSSQPEENVDRANDMLPKKSEESAAPSRERPKAKLLPRGATALPLRTPSGDLAITEKDPPGVGVAGVAAAPKGKEKNGGARLGMAGVPEDGEQPGWPSPAKAAPVLPTTHNHKVPVLISPTLKHTPADVQLIGTDSQGNKFKLLSEHQVTSSGDKDRPRRVKPKCAPPPPPVMRLLQHPSICSDPTEEPTALTAGQSTSETQEGGKKAALGAVPISGKAGRPVMPPPQVPLPTSSISPAKMANGTAGTKVALRKTKQAAEKISADKISKEALLECADLLSSALTEPVPNSQLVDTGHQLLDYCSGYVDCIPQTRNKFAFREAVSKLELSLQELQVSSAAAGVPGTNPVLNNLLSCVQEISDVVQR

This data set deals with T1, Bovine, dephosphorylated, Myelin Basic ….
As to B1, the “MBP Kinase Activity” value is reported as “Strong”.
Take B2: the “MBP Kinase Activity” value is recorded as “Strong”.
In the case of B3, the “MBP Kinase Activity” value is given as “Strong”.
The value for B4 was “Strong”; that for B5 was “Strong”; that for B6 was “Strong”.
The value for B7 was “Negative”; that for B8 was “Strong”.
The value for B9 was “Negative”; that for B10 was “Weak”.
